{"source": "the supplement of paper PMC10567573", "parents": {"B1": {"name": "ANKRD9 (parent)", "chain": "LLEDMRASEAFHWDERGRAAAYSP"}, "B2": {"name": "EPB41L3 (parent)", "chain": "SELGDYDPDECGSDYISEFRFAPN"}}, "data": [{"variants_of": "B1", "assay": "protein stability index of a GFP-peptide fusion (GPS, HEK-293T) (PSI 1-6); higher = more stable", "details": "c terminus: a fixed tail appended", "values": [{"variant": "PLEDMRASEAFHWDERGRAAAYSP", "note": "[L1P]", "protein stability index": 4.77}, {"variant": "MLEDMRASEAFHWDERGRAAAYSP", "note": "[L1M]", "protein stability index": 2.52}, {"variant": "NLEDMRASEAFHWDERGRAAAYSP", "note": "[L1N]", "protein stability index": 3.97}, {"variant": "CLEDMRASEAFHWDERGRAAAYSP", "note": "[L1C]", "protein stability index": 3.2}, {"variant": "ELEDMRASEAFHWDERGRAAAYSP", "note": "[L1E]", "protein stability index": 4.29}, {"variant": "KLEDMRASEAFHWDERGRAAAYSP", "note": "[L1K]", "protein stability index": 3.4}, {"variant": "HLEDMRASEAFHWDERGRAAAYSP", "note": "[L1H]", "protein stability index": 4.71}, {"variant": "QLEDMRASEAFHWDERGRAAAYSP", "note": "[L1Q]", "protein stability index": 4.37}, {"variant": "FLEDMRASEAFHWDERGRAAAYSP", "note": "[L1F]", "protein stability index": 3.36}, {"variant": "SLEDMRASEAFHWDERGRAAAYSP", "note": "[L1S]", "protein stability index": 4.22}, {"variant": "DLEDMRASEAFHWDERGRAAAYSP", "note": "[L1D]", "protein stability index": 4.18}, {"variant": "RLEDMRASEAFHWDERGRAAAYSP", "note": "[L1R]", "protein stability index": 3.93}, {"variant": "ILEDMRASEAFHWDERGRAAAYSP", "note": "[L1I]", "protein stability index": 2.44}, {"variant": "ALEDMRASEAFHWDERGRAAAYSP", "note": "[L1A]", "protein stability index": 3.72}]}, {"variants_of": "B2", "assay": "protein stability index of a GFP-peptide fusion (GPS, HEK-293T) (PSI 1-6); higher = more stable", "details": "c terminus: a fixed tail appended", "values": [{"variant": "SELGDYDPDECGSDYIPEFRFAPN", "note": "[S17P]", "protein stability index": 1.52}, {"variant": "SELGDYDPDECGSDYIWEFRFAPN", "note": "[S17W]", "protein stability index": 1.76}, {"variant": "SELGDYDPDECGSDYILEFRFAPN", "note": "[S17L]", "protein stability index": 2.68}, {"variant": "SELGDYDPDECGSDYIMEFRFAPN", "note": "[S17M]", "protein stability index": 2.11}, {"variant": "SELGDYDPDECGSDYICEFRFAPN", "note": "[S17C]", "protein stability index": 2.52}, {"variant": "SELGDYDPDECGSDYITEFRFAPN", "note": "[S17T]", "protein stability index": 1.61}, {"variant": "SELGDYDPDECGSDYIDEFRFAPN", "note": "[S17D]", "protein stability index": 3.94}, {"variant": "SELGDYDPDECGSDYIYEFRFAPN", "note": "[S17Y]", "protein stability index": 1.7}, {"variant": "SELGDYDPDECGSDYIEEFRFAPN", "note": "[S17E]", "protein stability index": 3.88}, {"variant": "SELGDYDPDECGSDYIREFRFAPN", "note": "[S17R]", "protein stability index": 2.34}, {"variant": "SELGDYDPDECGSDYINEFRFAPN", "note": "[S17N]", "protein stability index": 2.57}, {"variant": "SELGDYDPDECGSDYIHEFRFAPN", "note": "[S17H]", "protein stability index": 1.88}, {"variant": "SELGDYDPDECGSDYIIEFRFAPN", "note": "[S17I]", "protein stability index": 1.94}, {"variant": "SELGDYDPDECGSDYIVEFRFAPN", "note": "[S17V]", "protein stability index": 2.2}, {"variant": "SELGDYDPDECGSDYIGEFRFAPN", "note": "[S17G]", "protein stability index": 2.36}, {"variant": "SELGDYDPDECGSDYIQEFRFAPN", "note": "[S17Q]", "protein stability index": 2.44}, {"variant": "SELGDYDPDECGSDYIKEFRFAPN", "note": "[S17K]", "protein stability index": 2.32}, {"variant": "SELGDYDPDECGSDYIFEFRFAPN", "note": "[S17F]", "protein stability index": 1.7}, {"variant": "SELGDYDPDECGSDYIAEFRFAPN", "note": "[S17A]", "protein stability index": 2.33}, {"variant": "SELGDYDPDECGSDWISEFRFAPN", "note": "[Y15W]", "protein stability index": 1.97}, {"variant": "SELGDYDPDECGSDTISEFRFAPN", "note": "[Y15T]", "protein stability index": 2.7}, {"variant": "SELGDYDPDECGSDVISEFRFAPN", "note": "[Y15V]", "protein stability index": 2.52}, {"variant": "SELGDYDPDECGSDYVSEFRFAPN", "note": "[I16V]", "protein stability index": 2.76}, {"variant": "SELGDYDPDECGSDYYSEFRFAPN", "note": "[I16Y]", "protein stability index": 3.47}, {"variant": "SELGDYDPDECGSDYWSEFRFAPN", "note": "[I16W]", "protein stability index": 3.24}, {"variant": "SELGDYDPDECGSDYLSEFRFAPN", "note": "[I16L]", "protein stability index": 2.56}, {"variant": "SELGDYDPDECGSDYSSEFRFAPN", "note": "[I16S]", "protein stability index": 4.05}, {"variant": "SELGDYDPDECGSDYGSEFRFAPN", "note": "[I16G]", "protein stability index": 4.45}, {"variant": "SELGDYDPDECGSDYASEFRFAPN", "note": "[I16A]", "protein stability index": 4.33}, {"variant": "SELGDYDPDECGSDYTSEFRFAPN", "note": "[I16T]", "protein stability index": 3.8}, {"variant": "SELGDYDPDECGSDYKSEFRFAPN", "note": "[I16K]", "protein stability index": 3.37}, {"variant": "SELGDYDPDECGSDYQSEFRFAPN", "note": "[I16Q]", "protein stability index": 3.81}, {"variant": "SELGDYDPDECGSDYDSEFRFAPN", "note": "[I16D]", "protein stability index": 4.99}, {"variant": "SELGDYDPDECGSDYESEFRFAPN", "note": "[I16E]", "protein stability index": 4.6}, {"variant": "SELGDYDPDECGSDYHSEFRFAPN", "note": "[I16H]", "protein stability index": 4.14}, {"variant": "SELGDYDPDECGSDYFSEFRFAPN", "note": "[I16F]", "protein stability index": 2.26}, {"variant": "SELGDYDPDECGSDYPSEFRFAPN", "note": "[I16P]", "protein stability index": 3.7}, {"variant": "SELGDYDPDECGSDYCSEFRFAPN", "note": "[I16C]", "protein stability index": 3.41}, {"variant": "SELGDYDPDECGSDYNSEFRFAPN", "note": "[I16N]", "protein stability index": 4.52}, {"variant": "SELGDYDPDECGSDYMSEFRFAPN", "note": "[I16M]", "protein stability index": 2.24}, {"variant": "SELGDYDPDECGSDYRSEFRFAPN", "note": "[I16R]", "protein stability index": 3.47}, {"variant": "SELGDYDPDECGSDYISVFRFAPN", "note": "[E18V]", "protein stability index": 2.06}, {"variant": "SELGDYDPDECGSDYISDFRFAPN", "note": "[E18D]", "protein stability index": 1.83}, {"variant": "SELGDYDPDECGSDYISPFRFAPN", "note": "[E18P]", "protein stability index": 1.66}, {"variant": "SELGDYDPDECGSDYISKFRFAPN", "note": "[E18K]", "protein stability index": 2.5}, {"variant": "SELGDYDPDECGSDYISLFRFAPN", "note": "[E18L]", "protein stability index": 2.45}, {"variant": "SELGDYDPDECGSDYISHFRFAPN", "note": "[E18H]", "protein stability index": 2.37}, {"variant": "SELGDYDPDECGSDYISGFRFAPN", "note": "[E18G]", "protein stability index": 2.16}, {"variant": "SELGDYDPDECGSDYISWFRFAPN", "note": "[E18W]", "protein stability index": 1.99}, {"variant": "SELGDYDPDECGSDYISTFRFAPN", "note": "[E18T]", "protein stability index": 1.94}, {"variant": "SELGDYDPDECGSDYISRFRFAPN", "note": "[E18R]", "protein stability index": 2.11}, {"variant": "SELGDYDPDECGSDYISCFRFAPN", "note": "[E18C]", "protein stability index": 2.2}, {"variant": "SELGDYDPDECGSDYISIFRFAPN", "note": "[E18I]", "protein stability index": 2.41}, {"variant": "SELGDYDPDECGSDYISSFRFAPN", "note": "[E18S]", "protein stability index": 2.15}, {"variant": "SELGDYDPDECGSDYISQFRFAPN", "note": "[E18Q]", "protein stability index": 1.53}, {"variant": "SELGDYDPDECGSDYISNFRFAPN", "note": "[E18N]", "protein stability index": 2.15}, {"variant": "SELGDYDPDECGSDYISMFRFAPN", "note": "[E18M]", "protein stability index": 1.96}, {"variant": "SELGDYDPDECGSDYISFFRFAPN", "note": "[E18F]", "protein stability index": 2.17}, {"variant": "SELGDYDPDECGSDYISAFRFAPN", "note": "[E18A]", "protein stability index": 2.1}, {"variant": "SELGDYDPDECGSDYISYFRFAPN", "note": "[E18Y]", "protein stability index": 1.67}, {"variant": "SELGDYDPDECGSDYISECRFAPN", "note": "[F19C]", "protein stability index": 4.68}, {"variant": "SELGDYDPDECGSDYISEYRFAPN", "note": "[F19Y]", "protein stability index": 4.57}, {"variant": "SELGDYDPDECGSDYISEMRFAPN", "note": "[F19M]", "protein stability index": 3.91}, {"variant": "SELGDYDPDECGSDYISEARFAPN", "note": "[F19A]", "protein stability index": 4.66}, {"variant": "SELGDYDPDECGSDYISEERFAPN", "note": "[F19E]", "protein stability index": 5.42}, {"variant": "SELGDYDPDECGSDYISEPRFAPN", "note": "[F19P]", "protein stability index": 4.97}, {"variant": "SELGDYDPDECGSDYISEWRFAPN", "note": "[F19W]", "protein stability index": 2.61}, {"variant": "SELGDYDPDECGSDYISEKRFAPN", "note": "[F19K]", "protein stability index": 4.83}, {"variant": "SELGDYDPDECGSDYISEHRFAPN", "note": "[F19H]", "protein stability index": 4.85}, {"variant": "SELGDYDPDECGSDYISESRFAPN", "note": "[F19S]", "protein stability index": 5.13}, {"variant": "SELGDYDPDECGSDYISEQRFAPN", "note": "[F19Q]", "protein stability index": 5.04}, {"variant": "SELGDYDPDECGSDYISEVRFAPN", "note": "[F19V]", "protein stability index": 4.38}, {"variant": "SELGDYDPDECGSDYISEIRFAPN", "note": "[F19I]", "protein stability index": 4.67}, {"variant": "SELGDYDPDECGSDYISEDRFAPN", "note": "[F19D]", "protein stability index": 5.28}, {"variant": "SELGDYDPDECGSDYISETRFAPN", "note": "[F19T]", "protein stability index": 4.97}, {"variant": "SELGDYDPDECGSDYISENRFAPN", "note": "[F19N]", "protein stability index": 5.06}, {"variant": "SELGDYDPDECGSDYISELRFAPN", "note": "[F19L]", "protein stability index": 3.84}, {"variant": "SELGDYDPDECGSDYISERRFAPN", "note": "[F19R]", "protein stability index": 4.78}, {"variant": "SELGDYDPDECGSDYISEGRFAPN", "note": "[F19G]", "protein stability index": 4.99}, {"variant": "SELGDYDPDECGSDYISEFRFAQN", "note": "[P23Q]", "protein stability index": 2.92}]}]}
